The source of these data is patent publication US8158585B2, “Cross-β structure comprising amyloid-binding proteins and methods for detection of the cross-β structure, for modulating cross-β structures fiber formation and modulating cross-β structure-mediated toxicity” (CrossBeta Biosciences B.V., priority 2002, dated 2012).

Data set [1] deals with T1, tPA (Homo sapiens, UniProt P00750).
T1 construct: purchased Boehringer-Ingelheim (Germany)
Put plainly: ELISA: binding of tPA to glycated albumin and Hb. Particulars: g6p-glycated protein immobilized. The protocol: Binding of tPA to albumin-g6p (four-week and 23-week incubations), albumin-glyceraldehyde, control albumin, human Hb-g6p (ten-week incubation), Hb control, or to Aβ (1-40) was tested using an enzyme-linked immunosorbent assay (ELISA) set-up. Albumin-g6p and control albumin (2.5 μg ml^−1 in coat buffer, 50 mM Na2CO3/NaHCO3 pH 9.6, 0.02% m/v NaN3, 50 μl/well) were immobilized for one hour at room temperature in 96-well protein Immobilizer plates (Exiqon, Vedbaek, Denmark). Aβ (1-40) (10 μg ml^−1 in coat buffer) was immobilized for 75 minutes at room temperature in a 96-well peptide Immobilizer plate (Exiqon, Vedbaek, Denmark). Control wells were incubated with coat buffer only. After a wash step with 200 μl of PBS/0.1% v/v Tween 20, plates were blocked with 300 μl of PBS/1% v/v Tween 20, for two hours at room temperature while shaking. All subsequent incubations were performed in PBS/0.1% v/v Tween 20 for one hour at room temperature while shaking, with volumes of 50 μl per well. After each incubation, wells were washed five times with 200 μl of PBS/0.1% v/v Tween 20. Increasing amounts of f.l. tPA or K2-P tPA was added in triplicate to coated wells and to control wells. […] Absorbance was read at 490 nm on a Vmax kinetic microplate reader (Molecular Devices, Sunnyvale, Calif., USA).
A general note: An ELISA detects its analyte on a solid surface through an enzyme-linked reagent.

For data set [2], the target named is T1, tPA. Nature of the data set: ELISA: binding of tPA to 86-week glycated albumin-AGE preparations. Particulars: albumin incubated 86 weeks; 10 mM εACA. The protocol:
Binding of the cross-B structure marker tPA to albumin-AGE was tested using an ELISA setup. […] Therefore, we used tPA binding to these two peptides as positive control. The 86-week glycated samples and controls were coated to Greiner microlon plates (catalogue #655092, Greiner, Frickenhausen, Germany). Wells were blocked with Superblock (Pierce, Rockford, Ill., USA). All subsequent incubations were performed in PBS/0.1% (v/v) Tween 20 for one hour at room temperature while shaking, with volumes of 50 μl per well. After incubation, wells were washed five times with 300 μl PBS/0.1% (v/v) Tween 20. Increasing concentrations of tPA were added in triplicate to coated wells as well as to control wells. During tPA incubations of 86-week incubated samples, at least a 123,000 times molar excess of ε-amino caproic acid (εACA, 10 mM) was added to the solutions. εACA is a lysine analogue and is used to avoid potential binding of tPA to albumin via its kringle 2 domain.^50 Monoclonal antibody 374b (American Diagnostica, Instrumentation laboratory, Breda, The Netherlands) and, subsequently, RAMPO (Dako diagnostics, Glostrup, Denmark) was added to the wells at a concentration of 0.3 μg ml^−1. Bound peroxidase-labeled antibody was visualized using 100 μl of a solution containing 8 mg ortho-phenylene-diamine in 20 ml 50 mM citric acid/100 mM Na2HPO4 pH 5.0 with 0.0175% (v/v) H2O2. Staining was stopped upon adding 50 μl of a 2 M H2SO4 solution. Absorbance was read at 490 nm on a Vmax kinetic microplate reader (Molecular Devices, CA, USA). Background signals from non-coated control wells were substracted from corresponding coated wells.

A short description of data set [3]: Circular dichroism: percentage β-sheet (k2d software). The class given is physicochemical. The protocol:
UV circular dichroism (CD) spectra of peptide and protein solutions ([…] in H2O) were measured on a JASCO J-810 CD spectropolarimeter (Tokyo, Japan). Averaged absorption spectra of five or ten single measurements from 190-240 nm or from 190-250 nm, for fibrin peptides 85, 86, 87 or for albumin, glycated albumin and human Aβ (16-22), respectively, are recorded. The CD spectrum of Aβ (16-22) was measured as a positive control. Aβ (16-22) readily adopts amyloid fiber conformation with cross-β structure when incubated in H2O^45. For albumin and Aβ (16-22), relative percentage of the secondary structure elements present was estimated using k2d software.^48
Background: Circular dichroism is widely used to follow secondary structure.

For data set [4], the target named is T2, tPA-mediated plasminogen activation (Homo sapiens, UniProt P00750).
T2 construct: purchased Boehringer-Ingelheim (Germany)
Put plainly: Plasminogen activation assay. The class given is biochemical. Particulars: 50 μg ml−1 CpB, 5 μM Aβ. The protocol: Plasminogen (200 μg ml^−1) was incubated with tPA (200 pM) in the presence or the absence of a co-factor (5 μM of either endostatin, Aβ (1-40), or one the fibrin-derived peptides 85, 86 and 87). At the indicated time intervals, samples were taken and the reaction was stopped in a buffer containing 5 mM EDTA and 150 mM εACA. After collection of the samples, a chromogenic plasmin substrate S-2251 was added and plasmin activity was determined kinetically in a spectrophotometer at 37° C.

The test system of data set [5] is differentiated N1E-115 cells. Nature of the data set: N1E-115 cell detachment (methylene blue staining). In kind it is cell-based, mouse. Particulars: Aβ 10 μM, plasminogen 20 μg ml−1, CpB 1 μM, 24 hours. The protocol: FIG. 4 is a set of graphs illustrating stimulation of tPA-mediated plasmin formation by Aβ and synergistic stimulation of cell detachment by plasminogen and Aβ. Panel A depicts that plasminogen (200 μg/ml) and tPA (200 pM) were incubated with Aβ (5 μM) or control buffer. Samples were taken from the reaction mixture at the indicated periods of time and plasmin activity was measured by conversion of the chromogenic plasmin substrate S-2251 at 405 nm. […] After 48 hours, the dead cells were washed away and the remaining adherent cells were stained with methylene blue. Plasmin cannot prevent Aβ-induced cell detachment. Panel C illustrates that N1E-115 cells were differentiated and received the indicated concentrations of plasminogen in the presence or absence of 10 μM Aβ. After 24 hours, cell detachment was assessed. […] Panel D is an immunoblot analysis of plasmin formation and laminin degradation. Differentiated N1E-115 cells were treated with or without Aβ (10 μM) in the absence or presence of added plasminogen. Addition of Aβ results in the formation of plasmin (bottom panel) and in degradation of laminin (top panel).
(§1) FIG. 5 depicts graphs illustrating that carboxypeptidase B inhibits Aβ-stimulated tPA-mediated plasmin formation and cell detachment. […] Samples were taken from the reaction mixture at the indicated periods of time and plasmin activity was measured by conversion of the chromogenic plasmin substrate S-2251 at 405 nm. The reaction was performed in the absence or the presence of 50 μg ml^−1 carboxypeptidase B (CpB) and in the absence or presence of 3.5 μM carboxypeptidase inhibitor (CPI). CpB greatly attenuates A-stimulated plasmin formation. […] After 24 hours, the cells were photographed. Panel C illustrates that, subsequently, the cells were washed once with PBS and the remaining cells were quantified as percentage-adhered cells by methylene blue staining. In Panel D, the cells were treated as in Panels B and C and medium and cell fractions were collected and analyzed by Western blot using an anti-plasmin(ogen) antibody. Aβ stimulates plasmin formation that is inhibited by CpB.
N1E-115 mouse neuroblastoma cells were routinely cultured in DMEM containing 5% FCS, supplemented with antibiotics. Cells were differentiated into post-mitotic neurons.^52 The cells were exposed to Aβ (50 μg ml^−1) for 24 hours in the presence or absence of 20 μg ml^−1 plasminogen in the presence or absence of 50 μg ml^−1 CpB. Cells were photographed, counted and lysed by the addition of 4× sample buffer (250 mM Tris pH 6.8, 8% SDS, 10% glycerol, 100 mM DTT, 0.01% w/v bromophenol blue) to the medium. The lysate, containing both adherent and floating (presumably dying and/or dead) cells, as well as the culture medium, were analyzed for the presence of plasminogen and plasmin, as well as for laminin, by Western blot analysis using specific antibodies against plasminogen (MoAb 3642, American Diagnostics), laminin (PoAb L9393, Sigma).

The subject of data set [6] is Aβ-stimulated plasmin formation in N1E-115 cells. Put plainly: Western blot of plasmin formation in N1E-115 cultures. Particulars: co-incubation with CpB. In kind it is cell-based, mouse. The protocol: as §1
N1E-115 mouse neuroblastoma cells were routinely cultured in DMEM containing 5% FCS, supplemented with antibiotics. […] Cells were photographed, counted and lysed by the addition of 4× sample buffer (250 mM Tris pH 6.8, 8% SDS, 10% glycerol, 100 mM DTT, 0.01% w/v bromophenol blue) to the medium. […]
For orientation: A western blot detects proteins with antibodies after separation by electrophoresis.

Data set [7] has as its target T3, mΔIAPP (Mus musculus, UniProt P12968).
T3 construct: purchased Pepscan, Inc. or peptide synthesis facility of the Netherlands Cancer Institute; host or cells: chemical synthesis
Nature of the data set: Amyloid ELISA with tPA F-EGF-GST: non-amyloid control. In kind it is binding. The protocol: In order to define the affinity of the purified tPA F-EGF-GST recombinant protein, ELISAs were performed with immobilized amyloid (poly)peptides and non-amyloid control ΔmIAPP. Twenty-five μg ml^−1 of Aβ, FP13, IAPP or ΔmIAPP was immobilized on Exiqon peptide immobilizer plates. A concentration series of tPA F-EGF-GST in the presence of excess εACA was added to the wells and binding was assayed using anti-GST antibody Z-5. As a control, GST (Sigma-Aldrich, St. Louis, Mo., USA, catalogue #G-5663) was used at the same concentrations.

The target in data set [8] is T4, Aβ fibrils (Homo sapiens, UniProt P05067).
T4 construct: Peptide Aβ (1-40), containing amino acids as present in the described human Alzheimer peptide; purchased Pepscan, Inc. (The Netherlands) or peptide synthesis facility at the Netherlands Cancer Institute; host or cells: synthetic peptide
Nature of the data set: Amyloid pull-down with insoluble Aβ fibers. The class given is binding. Particulars: conditioned BHK medium. The protocol:
Conditioned medium of BHK cells expressing GST-tagged tPA F, F-EGF, EGF, K1, F-EGF-K1, FXII F, HGFa F, Fn F4, Fn F5, Fn F4-5 and GST was used for amyloid binding assays. At first, constructs were adjusted to approximately equal concentration using Western blots. Qualitative binding of the recombinant fragments were evaluated using a “pull-down” assay. To this end, the recombinantly made fragments were incubated with either Aβ or IAPP fibrils. Since these peptides form insoluble fibers, unbound proteins can be easily removed from the fibers following centrifugation. The pellets containing the bound fragments were subsequently washed several times. Bound fragments were solubilized in SDS-sample buffer and analyzed by PAGE, as were unbound proteins in the supernatant fraction and starting material. The gels were analyzed using immunoblotting analysis with the anti-GST antibody Z-5.

In data set [9] the test system is amyloid deposits in human brain inflicted by AD. Put plainly: Immunohistochemistry: binding of tPA F-EGF to human AD brain. Particulars: 7 nM construct; Congo red fluorescence to locate amyloid. The protocol:
Paraffin brain sections of a human inflicted with AD was a kind gift of Prof. Slootweg (Dept. of Pathology, UMC Utrecht). Sections were deparaffinized in a series of xylene-ethanol. Endogenous peroxidases were blocked with methanol/1.5% H2O2 for 15 minutes. After rinsing in H2O, sections were incubated with undiluted formic acid for ten minutes, followed by incubation in PBS for five minutes. Sections were blocked in 10% HPS in PBS for 15 minutes. Sections were exposed for two hours with 7 nM of tPA F-EGF-GST or GST in PBS/0.3% BSA. After three wash steps with PBS, sections were overlayed with 200 ng ml^−1 anti-GST antibody Z-5, for one hour. After washing, ready-to-use goat anti-rabbit Powervision (Immunologic, Duiven, The Netherlands, catalogue #DPVR-55AP) was applied and incubated for one hour. After washing, sections were stained for ten minutes with 3,3′-diamino benzidine (Sigma-Aldrich, St Louis, Mo., USA, catalogue #D-5905), followed by hematoxylin staining for ten seconds. After washing with H2O, sections were incubated with Congo red according to the manufacturer's recommendations (Sigma Diagnostics, St Louis, Mo., USA). […] Analysis of sections was performed on a Leica DMIRBE fluorescence microscope (Rijswijk, The Netherlands). Fluorescence of Congo red was analyzed using an excitation wavelength of 596 nm and an emission wavelength of 620 nm.

T1 sequence (P00750 36-562): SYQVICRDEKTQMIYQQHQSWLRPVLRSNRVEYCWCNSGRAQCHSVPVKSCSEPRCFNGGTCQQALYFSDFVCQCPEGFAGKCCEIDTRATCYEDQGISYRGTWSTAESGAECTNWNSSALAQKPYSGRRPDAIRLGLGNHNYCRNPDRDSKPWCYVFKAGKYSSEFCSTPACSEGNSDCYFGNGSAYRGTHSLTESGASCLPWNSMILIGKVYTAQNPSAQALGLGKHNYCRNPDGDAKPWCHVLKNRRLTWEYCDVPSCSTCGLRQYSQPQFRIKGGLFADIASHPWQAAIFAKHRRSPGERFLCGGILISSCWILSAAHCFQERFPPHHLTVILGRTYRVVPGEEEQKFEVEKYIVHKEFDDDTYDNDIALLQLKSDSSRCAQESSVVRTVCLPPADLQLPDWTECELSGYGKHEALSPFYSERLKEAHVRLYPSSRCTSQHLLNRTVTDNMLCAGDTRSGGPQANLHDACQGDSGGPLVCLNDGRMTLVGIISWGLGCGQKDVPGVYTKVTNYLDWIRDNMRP
T4 sequence (P05067 672-711): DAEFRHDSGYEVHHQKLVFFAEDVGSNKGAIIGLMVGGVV
T2 sequence (P00750 36-562): as the sequence (P00750 36-562) above

Regarding Albumin-g6p, in [1], the tPA binding result is given as “high-affinity tPA binding”. In addition, the “binding of amyloid-specific serine protease tPA” value in [2] was “bound specifically”. Moreover, the figures for the “β-sheet (%)” value in data set [3] (incubation time 2 weeks), in [3] (incubation time 4 weeks) and in data set [3] (incubation time 23 weeks) were 0%, 7% and 19%, respectively.

B1: CpB: porcine pancreas carboxypeptidase B from Roche (protein, UniProt P09955 111-416, looked up)
Carboxypeptidase B: TTGHSYEKYNNWETIEAWTKQVTSENPDLISRTAIGTTFLGNNIYLLKVGKPGPNKPAIFMDCGFHAREWISHAFCQWFVREAVLTYGYESHMTEFLNKLDFYVLPVLNIDGYIYTWTKNRMWRKTRSTNAGTTCIGTDPNRNFDAGWCTTGASTDPCDETYCGSAAESEKETKALADFIRNNLSSIKAYLTIHSYSQMILYPYSYDYKLPENNAELNNLAKAAVKELATLYGTKYTYGPGATTIYPAAGGSDDWAYDQGIKYSFTFELRDKGRYGFILPESQIQATCEETMLAIKYVTNYVLGHL
B1: the “Aβ-stimulated generation of plasmin in the presence of CpB” value in [4] is recorded as “greatly diminished”. For the same molecule, in data set [5], the “cell detachment induced by plasminogen and Aβ” value is listed as “completely prevented”. Moreover, the “Aβ-stimulated plasmin formation in the medium and on the cells” value in [6] is listed as “complete inhibition”.

B2: tPA F-EGF-GST: tPA F-EGF domains with C-terminal GST tag, expressed in BHK cells and purified (protein)
chain: SYQVICRDEKTQMIYQQHQSWLRPVLRSNRVEYCWCNSGRAQCHSVPVKSCSEPRCFNGGTCQQALYFSDFVCQCPEGFAGKCCEID
modifications: left off: small tags and cut ends; a dimerising Fc or GST
notes: tPA F-EGF domains with C-terminal GST tag, expressed in BHK cells and purified
With B2, the “binding to non-amyloid mΔIAPP” value in data set [7] is given as “No binding”. Moreover, in data set [8], the “binding to Aβ fibers (pull-down, Western blot)” value is “Efficient binding”. Further, in data set [9], the “binding to amyloid deposits in AD brain sections” value is “positive for tPA F-EGF-GST binding”.
